{"source": "the DeepSol protein solubility set", "data": [{"test": "soluble on expression in E. coli; label from the status in PepcDB or PDB records", "values": [{"sequence": "MSLSEAGYPRKVMQHAEELHERILSFDSRITVPLDFGTTGNEVDKDGPGQLDLVKAGRGRLSGAALAIFGWPEMWNGPNAPHKPTPGFVDEARHQQEIRYKILTGMVRDFPNQVGIAYSPEDFRRLAMEGKFAIVMSMLNAYPLGDDLSQLDKWAARGVRMFGFSYVGNNDWADSSRPLPFFNDSPDALGGLSPLGKQAVERLNDLGVIIDVSQMSTKALEQVAALSRAPIVASHSAPRALVDIKRNLSDHEMQLIKDSGGVIQVVGFPAYLRPLSKPTLDKLDALRARFDLPPLEGLDYALMPGDPIITIWPEQRFGEYASALYGILEEEPKAGLKELVDAIDYTVKKVGIDHVGISSDFNDGGGVDGWKDVSEIRNVTAELITRGYSDADIAKLWGGNFLRAWGEVQNAPSRQPPPKGIITITTDPNSSSVDKLAAALEHHHHHH", "soluble on expression in E. coli": "soluble"}, {"sequence": "MGLLALGTPLQWFESRTYNEHIRDEGIEQLLYIFQAAGKRDNDPLFWGDELEYMVVDFDDKERNSMLDVCHDKILTELNMEDSSLCEANDVSFHPEYGRYMLEATPASPYLNYVGSYVEVNMQKRRAIAEYKLSEYARQDSKNNLHVGSRSVPLTLTVFPRMGCPDFINIKDPWNHKNAASRSLFLPDEVINRHVRFPNLTASIRTRRGEKVCMNVPMYKDIATPETDDSIYDRDWFLPEDKEAKLASKPGFIYMDSMGFGMGCSCLQVTFQAPNINKARYLYDALVNFAPIMLAFSAAAPAFKGWLADQDVRWNVISGAVDDRTPKERGVAPLLPKYNKNGFGGIAKDVQDKVLEIPKSRYSSVDLFLGGSKFFNRTYNDTNVPINEKVLGRLLENDKAPLDYDLAKHFAHLYIRDPVSTFEELLNQDNKTSSNHFENIQSTNWQTLRFKPPTQQATPDKKDSPGWRVEFRPFEVQLLDFENAAYSVLIYLIVDSILTFSDNINAYIHMSKVWENMKIAHHRDAILFEKFHWKKSFRNDTDVETEDYSISEIFHNPENGIFPQFVTPILCQKGFVTKDWKELKHSSKHERLYYYLKLISDRASGELPTTAKFFRNFVLQHPDYKHDSKISKSINYDLLSTCDRLTHLDDSKGELTSFLGAEIAEYVKKNKPSIESKCDKLAAALGHHHHHH", "soluble on expression in E. coli": "soluble"}, {"sequence": "MKLLKVAAIAAIVFSGSALAGVVPQYGGGGGNHGGGGNNSGPNSELNIYQYGGGNSALALQADARNSDLTITQHGGGNGADVGQGSDDSSIDLTQRGFGNSATLDQWNGKDSHMTVKQFGGGNGAAVDQTASNSTVNVTQVGFGNNATAHQY", "soluble on expression in E. coli": "not soluble"}, {"sequence": "MAPKRALPTEQVVAQLLGDDMGPSGPRKRERLNHLSQEEKMDRRKLKNRVAAQNARDKKKERSAKIEDVMRDLVEENRRLRAENERLRRQNKNLMNQQNESVMYMEENNENLMNSNDACIYQNVVYEEEVVGEVAPVVVVGGEDRRAFESAAFINEPQQWEQARSTSINNNISNQLRRMDSKKNNTISVDMYLTIISILCNHMDRNKKMDTSNKSSNISRAQAESSIDSLLATLRKEQTVMQRLVQADPCTHLQKRVKHFRRIP", "soluble on expression in E. coli": "soluble"}, {"sequence": "METKQKERIRRLMELLKKTDRIHLKDAARMLEVSVMTIRRDLSQDDDPLPLTLLGGYIVMVNKPASSTNMPLPAKKTHHRDDLPVAILAAGLVRENDLVFFDNGPEMPLVISMIPDDITFTGICYSHRVFIALNEKPNATAILCGGTYRAKSDAFYDANNPSALDSLNPRKVFISASGVHEHFGVSWFNPDDLAAKRKAMERGLRKILLARHALFDEVAPASIGPLSAFDVLISDRPLPTDYAVHCRNGSVKVITPDSESE", "soluble on expression in E. coli": "not soluble"}, {"sequence": "MGHHHHHHSHMDNAERPRARRRRKPRVLFSQAQVYELERRFKQQRYLSAPERDQLASVLKLTSTQVKIWFQNRRYKCKRQRQDQTLELVGLPPPPPPPARRIAVPVLVRDGKPCLGD", "soluble on expression in E. coli": "soluble"}, {"sequence": "MCGIVGYIGYDNAKELLLKGLEKLEYRGYDSAGIAVVNDDNTTVFKEKGRIAELRKVADSSDFDGPVGIGHTRWATHGVPNHENSHPHQSSNGRFTLVHNGVIENYEELKGEYLQGVSFISETDTEVIVQLVEYFSNQGLSTEEAFTKVVSLLHGSYALGLLDAEDKDTIYVAKNKSPLLLGVGEGFNVIASDALAMLQVTSEYKEIHDHEIVIVKKDEVIIKDADGNVVERDSYIAEIDASDAEKGVYAHYMLKEIHEQPAVMRRIIQEYQDAEGNLKIDQDIINDVKEADRIYVIAAGTSYHAGLVGKEFLEKWAGVPTEVHVASEFVYNMPLLSEKPLFVYISQSGETADSRAVLVETNKLGHKSLTITNVAGSTLSREADHTLLLHAGPEIAVASTKAYTAQIAVLSILSQIVAKEHGREADIDLLRELAKVTTAIEAIVDDAPIMEQIATDFLETTRNAFFIGRTIDYNVSLEGALKLKEISYIQAEGFAGGELKHGTIALIEEGTPVVGLATQEKVNLSIRGNVKEVVARGAHPCIISMEGLEKEGDTYVIPHVHELLTPLVSVVALQLISYYAALHRDLDVDKPRNLAKSVTVE", "soluble on expression in E. coli": "not soluble"}, {"sequence": "MGSDKIHHHHHHLTQLAQCSTSSISQSSIYLPYRDGQLHLRQLLPSAPDFSKTPILMLHGAMSNGRVFYSQSGRGLGCFLAKAGFVVYVLDTAGRGLSLPKIDRDSTLGQGEVIREQLPLVQQTILDLHQKACQEQTAQYDRKAVAPSQVHWCAHSWGGVLMASSLARYPELQQSVRSLLTFGSKRTIRVKSFKKWLMVDVFWNRLAPGLAMGQGYLAADKLRIGMDNESRASLVQSIDWVQGDWIDHDDGFDYAKAAKRADWPPAWFISGLNDTVLGHPEDVADMVEECGFKRVKSTLLSKENGFKHDYGHADMLTHLDATSDHFPKISDWYLSFDLAVLNG", "soluble on expression in E. coli": "not soluble"}, {"sequence": "SLWYYLFKYIFMGPLFTLLGRPKVEGLEYIPSSGPAILASNHLAVADSFYLPLVVRRRIWFLAKSEYFTGTGLKGWINRWFYSVSGQVPIDRTNADSAQGALQTAVVLLGQGKLLGMYPEGTRSPDGRLYKGKTGLARLALHTGVPVIPVAMIGTNVVNPPGRKMLRFGRVTVRFGKPMDFSRFEGLAGNHFIERAVTDEVIYELMGLSGQEYVDIYAASVKDGRNAGGAGANPNSTDAARIPETAAEG", "soluble on expression in E. coli": "not soluble"}, {"sequence": "MPVLSKLARKMYSRLKSSLLNHFQKGANSSSNPSYNGLTKEEKKRLRHSLAECQLNDVYDPDSAHSSYQHSVSFVTTKPSSRHHQQTIDTSGHAPLAPQEVYLDETSSNSASTFYSDLLASSFSSAGGNSSFTCDYEDTNETSFIMSSGLPALSWNVQYIGSFPISGSYVDNLGRRIDSFQPTTSGGMQSVELSISVLGVKICCEKTVLMSHSLRRVTDISARPDTQNIGYVATEPVGRTYRRLCHVFHCQSLKEVSLKIHSVNVKLPGKSENRKSSTGVWALFAPIADHHIVTPVALFRLNLYNFKIGKNLQNNFEMWAIKIFKMFMGRNIFDQQDPEITIFKVSNSPAEEIENVLRNANQSQVLAAKQPKSAVSTSSMHPTNTASTMTEKRSASTVFLNRFLGKKGSQTVDESGQCKRKRRPVSAVFSSAIHRLSSSTSSVNPKRMSTIEPQAPTREQLLQLQNQMRCAASSPVPEEPRPTDLCAASTTTSTSSVASSSSSNGSSSSTDTSPVPPAPQTALVYDEKLGEWIYPIDQALMTQLDNCSYFVGQPTKDSMVYNLNTQPEGAFVIRYSESKSKCLALSMRVPCSHNPSGISHYLIIRNEQGFRLKLSATKKPFPTLQMMLTHHSVLESHLPCTLHFVQWQKTNFKQLAAMSTVERPLRTFNRHSTALTKIDENRNVTATSTPYRPSGRCGGGIDDFTTPKNRRTRNEINAMRRSHFFDDRQIVL", "soluble on expression in E. coli": "not soluble"}, {"sequence": "GPGSMALGSGIGLVPMWSSCPSVNPPTFPKGGIEILRQSLEAQEEVERTFREREAGHIECLNFKKSLRHLLRKQNERREELQLVEQRASERTQALLDELLIVVRERLKAMSPEGYQSITFDNGDMYEGNWKSCRMHGTGVMRRVADNDIYEGEWFFGVRNGNGMCCSPNFGTLYSGKWLAGKWHGRGELAEPEGLYIGDFVDGQIRGYGEYLYREGYAYKGDWVNGVYEGSGTFFYTNGARYEGQWRNGYEHGRGTMTYYNGDVYTGDWCNGRKHGTGTYTSKLLQYEGGWSSGAVHGIGKCTYADGSMYKGSWCRGLYDGDGEFVSQDKKCSYKGEFRGGKRCGRGVYQCGEVEYSGDWLDDRRHGVGEIKTRDGRVFRGTWSHDEPHCEVVPGCNLEGTSLSYCGGRGAPIAPEEPDPVLNMRLGLPDEVIDCMADAPT", "soluble on expression in E. coli": "not soluble"}]}]}
